PMC5646241, “Copper Chaperone CupA and Zinc Control CopY Regulation of the Pneumococcal cop Operon”

Columns and labels:
[1] = target: CopY, repressor of the Streptococcus pneumoniae cop operon (Streptococcus pneumoniae TIGR4); assay: SEC-MALS; WTC-010S5 column, 50 mM Tris-HCl pH 7.5, 100 mM NaCl, 5% glycerol, with 100 µM zinc, 25°C
[2] = target: CopY, repressor of the Streptococcus pneumoniae cop operon (Streptococcus pneumoniae TIGR4); assay: SEC-MALS; WTC-010S5 column, 50 mM Tris-HCl pH 7.5, 100 mM NaCl, 5% glycerol, without zinc (apo CopY), 25°C
[3] = target: T1, CopY (copper-responsive cop operon repressor) (Streptococcus pneumoniae TIGR4, UniProt A0ACD7PQP7 1-131); assay: fluorescence polarization; apo, no metal; FP: 50 mM Tris-HCl pH 7.5, 100 mM NaCl, 5% glycerol, Chelex-treated, 10 nM DNA, temperature not stated; EMSA: TBS, 20 ul, 4 C, 50 uM CopY, 50 ng DNA, 6% TBE gel, 0.5x TB running buffer without EDTA; settings: protein: recombinant; tags: pMCSG7 vector construct (tag not given); chain copies: 2; label: FAM on strand 1; blunt
CopY, zinc-bound = CopY, zinc-bound (Streptococcus pneumoniae TIGR4, UniProt A0ACD7PQP7 1-131); assay: fluorescence polarization; 10 uM Zn2+; FP: 50 mM Tris-HCl pH 7.5, 100 mM NaCl, 5% glycerol, Chelex-treated, 10 nM DNA, temperature not stated; EMSA: TBS, 20 ul, 4 C, 50 uM CopY, 50 ng DNA, 6% TBE gel, 0.5x TB running buffer without EDTA; settings: protein: recombinant; tags: pMCSG7 vector construct (tag not given); chain copies: 4; label: FAM on strand 1; blunt
[4] = target: T1, CopY (copper-responsive cop operon …); assay: fluorescence polarization; apo; described as nonspecific binding, linear; FP: 50 mM Tris-HCl pH 7.5, 100 mM NaCl, 5% glycerol, Chelex-treated, 10 nM DNA, temperature not stated; EMSA: TBS, 20 ul, 4 C, 50 uM CopY, 50 ng DNA, 6% TBE gel, 0.5x TB running buffer without EDTA; settings: protein: recombinant; tags: pMCSG7 vector construct (tag not given); chain copies: 2; label: FAM on strand 1; blunt
[5] = target: T1, CopY (copper-responsive cop operon …); assay: EMSA; no metal; 50 uM CopY; FP: 50 mM Tris-HCl pH 7.5, 100 mM NaCl, 5% glycerol, Chelex-treated, 10 nM DNA, temperature not stated; EMSA: TBS, 20 ul, 4 C, 50 uM CopY, 50 ng DNA, 6% TBE gel, 0.5x TB running buffer without EDTA; settings: protein: recombinant; tags: pMCSG7 vector construct (tag not given); chain copies: 2; label: 3' biotin on strand 1; blunt

CopY, repressor of the Streptococcus pneumoniae cop operon (natural protein)
stoichiometry N [1]: 4 | stoichiometry N [2]: 2

B1: pSP_0727 cop promoter, FAM (dsDNA)
DNA 1: TCTATAATTGACAAATGTAGATTTTAAGAGTATACTGATGAGTGTAATTGACAAATG
DNA 2: CATTTGTCAATTACACTCATCAGTATACTCTTAAAATCTACATTTGTCAATTATAGA
Kd [3]: 4240 ± 780 nM | Kd (CopY, zinc-bound): 520 ± 130 nM

B2: pSP_1541 promoter, FAM (dsDNA)
DNA 1: GCGAACCTCACTTACCCCTTGCAAAGTCTTGGGGTCATTAGA
DNA 2: TCTAATGACCCCAAGACTTTGCAAGGGGTAAGTGAGGTTCGC
binding result [4]: no binding

B3: pSP_1541 promoter, biotinylated (dsDNA)
DNA 1: B2 DNA 1
DNA 2: B2 DNA 2
binding result [5]: no binding
